Five molecules from US20220177593A1 (CELLDEX THERAPEUTICS, published 2022) can be followed below.

Residue numbers refer to the chain shown, from its start.

Assay [1] concerns the target T1, human Axl expressed on the surface of cells (human, UniProt P30530 26-894).
T1 construct: whole, on cells; also called huAxl; Axl on H1299 cells
T1 sequence (looked up): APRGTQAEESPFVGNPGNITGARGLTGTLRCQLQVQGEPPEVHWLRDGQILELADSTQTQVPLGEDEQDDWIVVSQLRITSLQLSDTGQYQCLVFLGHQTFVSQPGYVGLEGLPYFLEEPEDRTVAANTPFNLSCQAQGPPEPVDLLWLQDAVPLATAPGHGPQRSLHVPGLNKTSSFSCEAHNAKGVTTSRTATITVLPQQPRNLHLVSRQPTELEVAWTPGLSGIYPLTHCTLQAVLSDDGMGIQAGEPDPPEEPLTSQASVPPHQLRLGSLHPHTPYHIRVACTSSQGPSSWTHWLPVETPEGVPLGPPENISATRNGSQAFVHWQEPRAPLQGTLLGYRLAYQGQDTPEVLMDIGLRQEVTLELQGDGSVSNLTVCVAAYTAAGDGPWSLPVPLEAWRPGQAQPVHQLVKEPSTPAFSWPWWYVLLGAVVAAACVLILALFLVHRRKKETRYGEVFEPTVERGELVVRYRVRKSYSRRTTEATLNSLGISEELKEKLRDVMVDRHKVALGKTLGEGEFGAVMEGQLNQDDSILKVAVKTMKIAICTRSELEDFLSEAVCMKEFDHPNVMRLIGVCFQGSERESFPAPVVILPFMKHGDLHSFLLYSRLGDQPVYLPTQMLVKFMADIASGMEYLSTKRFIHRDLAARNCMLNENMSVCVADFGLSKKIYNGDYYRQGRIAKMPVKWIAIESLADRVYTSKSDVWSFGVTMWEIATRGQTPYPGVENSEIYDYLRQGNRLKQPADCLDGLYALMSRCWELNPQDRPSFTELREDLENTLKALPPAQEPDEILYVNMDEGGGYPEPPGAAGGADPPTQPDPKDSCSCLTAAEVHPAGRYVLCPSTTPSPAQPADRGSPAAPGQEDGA
Kind of assay: flow cytometry on L cells expressing human Axl. As for the experimental part:
(§1) The ability of anti-Axl human antibodies to bind to Axl on cells expressing human Axl on their surface was investigated by flow cytometry as follows: Purified antibodies were incubated with either L cells expressing human Axl on their surface or H1299 cells at room temperature on a plate shaker. After 20 minutes, the cells were washed with PBS containing 0.1% BSA and 0.05% NaN₃ (PBA), and the bound antibodies were detected by incubating the cells with a phycoerythrin (PE)-labeled goat anti-human IgG Fc-specific probe. The excess probe was washed from the cells with PBA and the cell-associated fluorescence was determined by analysis using a FACSCanto II™ instrument (BD Biosciences, NJ, USA) according to the manufacturer's directions.

The target in assay [2] is T2, recombinant human Axl-msFc (human, UniProt P30530 26-449, limits assumed).
T2 construct: also called soluble human Axl-msFc; huAxl; not shown: mouse Fc (msFc)
T2 sequence (looked up): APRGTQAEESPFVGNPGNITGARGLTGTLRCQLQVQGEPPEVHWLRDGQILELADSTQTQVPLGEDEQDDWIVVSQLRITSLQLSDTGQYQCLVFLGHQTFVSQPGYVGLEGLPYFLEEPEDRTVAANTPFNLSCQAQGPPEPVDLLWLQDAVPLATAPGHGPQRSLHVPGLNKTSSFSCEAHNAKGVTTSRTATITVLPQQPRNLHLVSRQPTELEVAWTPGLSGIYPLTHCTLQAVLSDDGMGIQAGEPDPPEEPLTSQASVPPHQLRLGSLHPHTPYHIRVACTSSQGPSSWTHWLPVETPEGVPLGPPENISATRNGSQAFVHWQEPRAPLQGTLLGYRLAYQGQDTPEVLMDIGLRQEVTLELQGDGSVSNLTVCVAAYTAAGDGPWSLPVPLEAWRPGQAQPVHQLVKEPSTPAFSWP
Kind of assay: ELISA, plates coated with recombinant human Axl-msFc. As for the experimental part: Binding of Ab301 and four humanized antibody subclones to human Axl was determined by ELISA using the following protocol: Microtiter plates were coated with recombinant human Axl-msFc, in phosphate-buffered saline (PBS), and then blocked with 5% bovine serum albumin (BSA) in PBS. Protein A purified human monoclonal antibodies and an isotype control were added at various concentrations and incubated at 37° C. The plates were washed with PBS/Tween and then incubated with a goat-anti-human IgG Fc-specific polyclonal reagent conjugated to horseradish peroxidase (HRP) at 37° C. After washing, the plates were developed with HRP substrate, and analyzed at OD 450-650 using a microtiter plate reader.

The target of assay [3] is T3, Domain 1 (Ig-like domain 1) of the human Axl extracellular domain (human, UniProt P30530 34-137).
T3 construct: The tag is not described; also called D1; Domain 1 of the Axl-ECD alone
The experiment in a line: ELISA on purified Axl domains coated on plates, Ab301 at 5 ug/mL. As for the experimental part:
(§2) Human Axl domains (D1-D4) of the Axl extracellular domain (Axl-ECD) were expressed in Exi293 cells, purified by nickel affinity chromatography and buffer exchanged to PBS. […] Ab301 was added at 5 μg/mL for 1 hour at room temperature, washed, and subsequently incubated with an HRP- conjugated goat anti-human antibody (Jackson Immunoresearch). Plates were washed and incubated with TMB (Pierce Biotechnology).

Assay [4] deals with T4, purified extracellular domain of human Axl (human, UniProt P30530 26-451).
T4 construct: extracellular domain; also called human Axl-ECD; Axl-ECD
T4 sequence (looked up): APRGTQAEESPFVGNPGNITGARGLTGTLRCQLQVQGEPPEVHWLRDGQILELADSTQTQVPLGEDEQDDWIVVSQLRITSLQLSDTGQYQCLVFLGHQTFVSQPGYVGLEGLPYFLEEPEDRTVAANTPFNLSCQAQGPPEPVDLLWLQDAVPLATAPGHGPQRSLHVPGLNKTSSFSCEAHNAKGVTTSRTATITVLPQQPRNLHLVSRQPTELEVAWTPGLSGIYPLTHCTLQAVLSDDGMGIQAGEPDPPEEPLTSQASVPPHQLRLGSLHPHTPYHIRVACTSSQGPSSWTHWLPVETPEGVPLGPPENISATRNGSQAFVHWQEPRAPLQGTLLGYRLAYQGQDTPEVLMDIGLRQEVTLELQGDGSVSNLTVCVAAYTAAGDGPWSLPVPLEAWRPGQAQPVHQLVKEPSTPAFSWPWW
Described as above. As for the experimental part: as §2

Assay [5] has as its target T5, purified extracellular domain of human MerTK (human, UniProt Q12866 21-505).
T5 construct: extracellular domain; also called human MerTK-ECD
T5 sequence (looked up): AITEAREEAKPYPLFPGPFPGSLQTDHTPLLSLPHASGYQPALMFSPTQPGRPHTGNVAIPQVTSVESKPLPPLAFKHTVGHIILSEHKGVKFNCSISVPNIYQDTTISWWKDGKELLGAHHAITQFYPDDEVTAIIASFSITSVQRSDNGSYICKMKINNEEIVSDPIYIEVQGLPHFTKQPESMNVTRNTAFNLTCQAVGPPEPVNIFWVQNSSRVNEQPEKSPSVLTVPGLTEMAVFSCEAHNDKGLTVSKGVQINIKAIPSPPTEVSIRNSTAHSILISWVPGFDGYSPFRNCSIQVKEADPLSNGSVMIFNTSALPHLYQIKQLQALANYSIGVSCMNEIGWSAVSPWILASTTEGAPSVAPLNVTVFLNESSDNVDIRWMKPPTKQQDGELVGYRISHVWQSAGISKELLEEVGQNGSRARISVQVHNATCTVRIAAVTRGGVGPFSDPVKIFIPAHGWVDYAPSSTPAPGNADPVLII
The experiment in a line: ELISA, plates coated with 100 ng purified extracellular domain, titration of Ab301. The protocol: Binding of Ab301 to human Axl extracellular domain and its lack of binding to human MerTK extracellular domain was determined using the following protocol: Nunc MaxiSorb™ plates (Thermo Fisher Scientific) were coated with 100 ng of the purified extracellular domain of human Axl or human MerTK in […] borate buffer, overnight at 4° C. Plates were washed and blocked for 1 hour at room temperature with Tris-buffered saline (TBS) with 1% BSA. A titration of Ab301 was added to the coated plates for 1 hour at room temperature, followed by washing and incubation with an HRP-conjugated goat anti-human antibody (Jackson Immunoresearch) for 1 hour at room temperature. Washed plates were incubated with 3,3′,5,5′-Tetramethylbenzidine (TMB) substrate (Thermo Fisher Scientific) and read using a Biotek® plate reader. Data are plotted as the optical density at 450 nm (Abs450) as a function of the log-transformed molar concentration of Ab301, and fit to a 4-parameter binding curve using GraphPad Prism™.

Assay [6] concerns the target T1, human Axl expressed on the surface of …. The experiment in a line: flow cytometry on H1299 cells. The protocol: as §1

B1: Ab301 (antibody, human IgG1, V domains shown)
VH: EVKLEASGGGLVQPGMSVKLSCTTSGFTFSDYWMEWVRQAPGKGLEWVAEIRNKVNNYATYYGKSVKGRFTISRDDSKSIVYLQMNSIRSEDTGIYYCNTLRLFAYWGQGTLVTVSA
VL: DIVMTQAPLSISVTPGESPSMSCRSSKSLLHRNGITYVYWYLQKPGKSPQLLIYRMSTLASGVPDRFSGSGSETDFTLKINKVEAEDVGIYYCGQLLENPYTFGAGTRLEIK
notes: also called anti-Axl antibody Ab301
As for B1, the binding result in assay [1] is “binds”; in assay [2] it was “binds”; in assay [3] it was “binds”; in assay [4] it was “binds”; in assay [5], “no binding”.

B2: Ab302 (antibody, V domains shown)
VH: EVQLVESGGGLVKPGGSLKLSCAASGFTFSDYWMEWVRQAPGKGLEWVAEIRNKVNNYATYYGKSVKGRFTISRDDSKNTLYLQMNSLKTEDTAVYYCNTLRLFAYWGQGTLVTVSS
VL: DIQMTQSPSSLSASVGDRVTITCRSSKSLLHRQGITYVYWYQQKPGKVPKLLIYRMSTLASGVPSRFSGSGSGTDFTLTISSLQPEDVATYYCGQLLENPYTFGQGTKLEIK
notes: Humanized
For the molecule B2, the binding result in assay [6] and in assay [2] was “binds” each time.

B3: Ab303 (antibody, V domains shown)
VH: B2 VH with L11V, K13Q, G16R, K19R, D76N, K89R, T90A
VL: B2 VL
notes: Humanized
With B3, the binding result in assay [6] and in assay [2] was “binds” each time.

B4: Ab305 (antibody, V domains shown)
VH: B2 VH with K13Q, G16R, K19R, A23T, A49G, N79S, T80I, L81A, S117A
VL: B2 VL
notes: Humanized
As to B4, the binding result in assay [6] and in assay [2] was “binds” throughout.

B5: Ab304 (antibody, V domains shown)
VH: B2 VH with K13Q, K19R, A49G, D76E, T80S, L112T
VL: B2 VL
notes: Humanized
As for B5, the binding result in assay [6] and in assay [2] was “binds” throughout.
